Reference: publication PMC5509211

Molecular target: actin filaments (skeletal muscle) (Gallus gallus), P68139
Conditions: modification not given

Binder: MGVADLIKKFESISKEE [mEGFP-Lifeact]
- Kd: 9.3 µM
